Common to all, as to assay: SEC
(In general: SEC sorts molecules by how far they enter the pores of the column.)

The target in experiment [1] is Bile Salt Hydrolase from Enterococcus faecalis, wild type (Enterococcus faecalis).
Experiment [2] deals with EfBSH E269A (Enterococcus faecalis).
For experiment [3], the target named is EfBSH E269D (Enterococcus faecalis).
The target of experiment [4] is EfBSH E269Q (Enterococcus faecalis).
For experiment [5], the target named is EfBSH R207A (Enterococcus faecalis).

One may read the stoichiometry N as a count of units in the complex or per binding partner.

Take “Bile Salt Hydrolase from Enterococcus faecalis, wild type (enzyme)”: in experiment [1], the stoichiometry N amounted to 4.
In experiment [2], EfBSH E269A (enzyme) had a stoichiometry N of 4.
Regarding EfBSH E269D (enzyme), the stoichiometry N in experiment [3] was determined as 4.
EfBSH E269Q (enzyme): the stoichiometry N in experiment [4] came out at 4.
For EfBSH R207A (enzyme), the stoichiometry N in experiment [5] was 4.
